Patent US20260078416A1, “ORTHOGONAL METABOLIC FRAMEWORK FOR ONE-CARBON UTILIZATION” (Mojia Biotech Pte. Ltd., priority 2021, published 2026)

B1: JGI20: HACS variant; GenBank PWB41796.1 (protein)
chain: MGQITGAQIVARALKQQGVEYMFGIVGIPVIPIAMFAQREGIKFYGFRNEQSASYAAAAVGYLTGRPGVCLGVSGPGMIHGVAGMANAWSNCWPMILIGGANDSYQNGQGAFQEAPQIEAARPFAKYCARPDSLARLPFYVEQAVRTSIYGRPGAVYLDLPGDIITGAMEEEDVHFPPRCPDAPRMMAPQESIDAAMAALKSAERPLVIVGKGAAYSRAENEVREFLETTQLPYLASPMGKGVMPDDHPLSIAPARSAALLGADVILLMGARLNWMMHFGHPPRFDPKVRVIQMDISAEEIGTNVPTEVALVGDAKAITTQLNASLKQQPWQYPSETTWWTGLRKKIDENGATVAEMMADESVPMSYYRVYREIRDLIPNDAIIQNEGASTMDIGRTLMPNFLPRHRLDAGSFGTMGVGLGQAIAAAAVHPDKHVFCIEGDSAFGFSGMEVETAARYGMKNITFIIINNNGIGGGPDTLDPTRVPPSAYTPNAHYEKMAEIYGGKGYFVTEPSQLRPALEEAIKADKPAIVNIMISATSQRKPQQFAWLTR
B2: JGI15: HACS variant; GenBank HAK63664.1 (protein)
chain: MAKSEGKVNGATLMARALQQQGVQYMFGIVGFPVIPIAIAAQREGITYIGMRNEQSASYAAQAASYLTGRPQACLVVSGPGVVHALAGLANAQVNCWPMLLIGGASAIEQNGMGAFQEERQVLLASPLCKYAHQVERPERIPYYVEQAVRSALFGRPGAAYLDMPDDVILGEVEEAAVRPAATVGEPPRSLAPQENIEAALDALQSAKRPLVIVGKGMAWSRAENEVRQFIERTRLPFLATPMGKGVMPDDHPLSVGGARSHALQEADLVFLLGARFNWILHFGLPPRYSKDVRVIQLDLSAEEIGNNRQAEVALVGDGKAIVGQLNQALSSRQWFYPAETPWREAIAAKIAGNQAAVAPMIADNTSPMNYYRVYRDIAARLPRNAIIVGEGANTMDIGRTQMPNFEPRSRLDAGSYGTMGIGLGFAVAAAAVHPGRPVIAVQGDSAFGFSGMEFETAARYGMPIKVIILNNGGIGMGSPAPRDGQPGMPHALSHDARYERIAEAFGGAGFYVTDSAELGPALDAAMAFKGPAIVNIKIAATADRKPQQFNWHG

Key:
[1] = In vitro kinetic assay of purified HACS variants; substrate acetaldehyde; type: biochemical; details: for Km: read-out: Km, app
Protocol: (§1) The kinetic assay was performed with a coupled reaction providing formyl-CoA from formate catalyzed by CoA transferase CaAbfT using acetyl-CoA as a CoA donor.
(§2) In vitro kinetic assay was comprised of 100 mM KPi pH 6.9, 10 mM MgCl2, 0.15 mM TPP, 2 mM acetyl-CoA, 1 μM CaAbfT, 0.25 μM HACS variants, and 20 mM sodium formate. Reactions were incubated at room temperature for 3 min to convert formate to formyl-CoA, and then specific concentration of aldehyde (specifically acetaldehyde or propionaldehyde here) was added to the reaction. After incubating another 3 min, 1/20 of the reaction volume of 10 M NaOH solution was added to terminate the reactions. After 30 min hydrolysis, 1/20 of the reaction volume of 10 N H2SO4 was added to neutralize the pH. Samples were centrifuged at 20817×g for 15 minutes and the supernatant analyzed by GC-MS as described below.
(§3) For this analysis, 0.15 of the reaction volume of internal standard methyl succinate was added to the samples. The resulting sample was extracted into 4 mL ethyl acetate by vigorous vortexing for 20 min. The organic phase was separated and evaporated to dryness under a stream of nitrogen. The residue was dissolved in 30 μL pyridine and 30 μL N,O-Bis(trimethylsilyl)trifluoroacetamide (BSTFA) and incubated at 60° C. for 15 minutes. Compound identification and analysis was performed by GC-MS using an Agilent 7890B Series Custom Gas Chromatography system equipped with a 5977B Inert Plus Mass Selective Detector Turbo EI Bundle (for identification) and an Agilent HP-5-ms capillary column (0.25 mm internal diameter, 0.25 μm film thickness, 30 m length). Samples were analyzed by GC (1 μL injection with a 20:1 split ratio) using helium as the carrier gas at a flowrate of 1.5 mL/min and the following temperature profile: initial 90° C. for 3 min; ramp at 15° C./min to 170° C.; ramp at 20° C./min to 300° C. and hold for 8 min. The injector and detector temperature were 250° C. and 350° C., respectively.
(§4) As hypothesized from Example 3 (FIG. 22B), JGI15 had lower Km with lower kcat with respect to formaldehyde in comparison with JGI20 (Table 8). With longer chain aldehydes JGI15 and JGI20 has lower Km (sub millimolar) to acetaldehyde and propionaldehyde compared to JGI23 and JGI24, while also lower Kcat as well. Which indicates they have stronger affinity to the aldehyde and lower enzymatic activity. JGI23 and JGI24 are promising as they have better activity (higher Kcat) which have a good potential to work better in vivo by improve their affinity to substrates (lower Km). Similarly, AcHACL as lower Km with acetone while JGI15 as better Kcat (Table 8).

[2] = test system: glycolate production from formaldehyde and formate; assay: Resting-cell bioconversion pathway 2 (HACS with CaAbfT), co-feeding formaldehyde and formate; type: cell-based, E. coli
Description: We used glycolic acid (glycolate) productivity per cell density (uM glycolate/OD600) as indicator of HACS activity. Two different enzymatic routes for glycolate synthesis are explored. The first pathway (pathway 1) is similar to the pathway used for initial screening in Example 2 with addition of an extra gene, aldehyde dehydrogenase aldA from Escherichia coli (EcAldA) overexpressed to drive flux from glycolaldehyde to glycolate (FIG. 21A). In addition, HACS and LmACR-AldA are controlled under independent inducible promoters to investigate the impact of varying relative gene expressions (FIG. 21B). The second pathway (pathway 2) involves independent fluxes of formaldehyde and formyl-CoA allowing assessment of the enzyme activity with response to changing formaldehyde concentration only, while maintaining constant formyl-CoA flux. Formyl-CoA is generated by formic acid (formate) catalyzed by the acyl-CoA transferase from Clostridium aminobutyricum (CaAbfT) (FIG. 22A).
For the in vivo prototyping, we engineered vectors to independently control expression of HACS variants and the LmACR-EcAldA (pathway 1, FIG. 21A) or CaAbfT (pathway 2, FIG. 22A), with HACS under control of the IPTG-inducible T7 promoter in pCDFDuet-1 and LmACR-EcAldA or CaAbfT under control of a cumate-inducible T5 promoter in pETDuet-1 (FIG. 21B). As a host for these vectors, we used an engineered strain of E. coli based on MG1655(DE3) with knockouts for formaldehyde (ΔfrmA) and formate (ΔfdhF ΔfdnG ΔfdoG) oxidation as well as for glycolate utilization (ΔglcD)), which we expected could compete or interfere with the analysis of our pathway. […]
Cells from the above pre-cultures were then centrifuged (4000 rpm, 22° C.), washed with the above minimal media without any carbon source, and resuspended with 1 mL of above minimal media containing indicated amounts of carbon source. […] The cells were harvested after 3 hours for LmACR-EcAldA co-expression and 1 hour for CaAbfT co-expression by centrifugation and the supernatant analyzed by HPLC or GC-MS as described in EXAMPLE 2. […]

[3] = In vitro kinetic assay of purified HACS variants, coupled with CaAbfT formyl-CoA generation; substrate formaldehyde; type: biochemical; details: for Km: read-out: Km, app
Protocol: as §1, §2, §3, §4

[4] = 0.5 mM formaldehyde and 20 mM formate co-fed

| Molecule | Kcat, app [1] | Km [1] | glycolate productivity under high formaldehyde concentration ([2]; 5 mM formaldehyde and 20 mM formate co-fed) | Kcat, app [3] | Km [3] | glycolate productivity relative to JGI20 [2, 4] | glycolate productivity relative to RuHACL [2, 4] |
| --- | --- | --- | --- | --- | --- | --- | --- |
| B1 | 39.44 ± 3.95 s⁻¹ | 930 ± 150 µM | better glycolate productivity | 9.53 s⁻¹ | 21400 µM |  |  |
| B2 | 22.50 ± 1.93 s⁻¹ | 290 ± 20 µM |  | 5.98 s⁻¹ | 3870 µM | 1.5 fold | 7 fold |
